Measurements: the domain aggregation screens of Martell et al. (2025)

Assay: soluble fraction after stress (log2 fold change); higher = more stays soluble; pooled small domains, quantitative proteomics
Conditions: stress: 50 degC
How it was run: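 Pooled custom libraries of small protein domains were measured in a high-throughput format, with quantitative proteomics as the read-out. Each library was stressed at 50°C. Aggregation propensity is given as the base-two logarithm of the fold change in how much of each protein stays soluble after the stress. Higher values mean a larger share of the protein remains in solution.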

Point of comparison: “HMGVSLNELAYRRFKQALVTLSYKPGEYLNTAQVMNDLDMGRTPINQAIHRLANEGLLQVIPRKGVMVS”, “soluble fraction (log2)” value -1.79. Against it:
- HMDALPLIQLEKEIKDFISQGQKINAIKHYRNVMDRDFGTTISLKLAKYTVDALAQNIKVDLTKGYDQ — higher, -0.475
- HMNTPLYLKIREQIFDALRSGRWAANDPLPSETKLASEFEVSQGTIRKAIDDLVAQNILYRHQGRGTFIRR — higher, -0.5
- HMKIKLQATEQQRKTLDELYVQLKKLEPTSKEDLSLLYRLENPHLVSKQEAQGLISIAIGRVGSLAIEQQ — higher, -0.27
- HMADMKIHLRPYAHDTNRWHVDIRLMHPTAATEIRKRLVAPAGLSEAQARAWGERQVPTILGKALGVI — higher, -0.415
- HMRLSAADLQSYLKGMDYPASRQDLIAHARGHNAPEEAVATLEQFSDRTYRSAADVSVEFGRE — higher, 0.25
- HMDFEEGAVKWFNTKKGYGFITRDQGDDIFVHFRNIKAQSRRSLTDGERVTFVVTEGDKGLQADHVSPV — higher, -0.31
- HMAHSWEAIRVKLQQIIDEEDKTKPLNDDQIKEKLAEAGIPNLARRTVAKYRKLLNIPTARFRKR — higher, -0.313
- HMGMETQLSPKEKSIYTIIQNRPNIQSGEVSEKLAIPLPTVKRILSDLINKGLIEKQGSGRNVSYTI — higher, 0.254
- HMQQFGANVRLIRKARQMSIKQLSELSGVSQTMISEVERGLKIPTIDVAGKIAAALGIDLTNLMG — higher, -0.465
- HMMQEIKLEVINNEELRIDNYINLAGIGLSRSYIQKLIKDGVILVNGKEVKSSYKVSLGDIISVQIPDPG — higher, 0.299
- HMLLNPFERLTERELEIADLYAKGYGNLEIANFLSIKQNTVSTYKKRIFEKLGIDNLVELIELIKNY — higher, 0.148
- HMTGSETLQDIFAHLEAGTVRTALSLIPRLDAVEYEQNRQRIAELAGVRPSALDDLRKQAKREEN — higher, 0.519
- HMQARSQQTIQTLFKAAAQILDKEGEAGLSTNKVAAAAGFSIGTLYQYFPSKEVLIQAMAAR — higher, -0.0788
- HMRQMSEELQSAKEALEDRRTQEKAVLLLMEHRNISNDEAHRLLRKLAMDQGKRLPEVARALVSMAGVL — higher, 0.132
- HMEDGRLPPPGTVLRREYKGRAVFVRVLPKGFEFEGEVYRSLSAIAAKVTGSHWNGFRFFGLHE — higher, -1.54
- HMDGMRASDMVRAALAGAGKTQKELAEHMGWTPQNLSGRLKNNSLTFDELSKALHFAGYEVSMSDANGAG — higher, 0.0567
- HMLSDSDTLRDLYLSEQIWNVGDLIRVKGKNDDTHPSWEIIRRGTNYITAIDENYKSHKVWLHDIDI — higher, -1.17
- HMLPQGKGTAMWLADHLAAASVTLDAGARKLLEDTLGEDMSRLPGVLRVLEATFGSDAGRLSAEDIEPFL — higher, 0.31
- HMNADRIVGQTAKVIHPITPDEKGRVMVDNLDWAAAAQNRGESFEVGEEVSIVRIEGVTVYVQK — higher, 0.209
- HMEEDPVISQAQRQALFKLAHDHFGQEEGNKVILRLIGEHGLRSTTNMTASVYKTVTDALIQVIESMVEG — higher, -0.0318
- HMFAKVEGITGDILDKLQQQRGFLALSDKSSPEAIYDTFGVSKKVFKQAIGTLFKQQKISIEAEGIRLV — higher, -0.709
- HMGQYSTTLDKIENSLFGFTYSNEAENTRINRIENKVYGKTSTSQTSTRIAKLKKDLSVDEMG — higher, 0.0362
- HMKGERHNKILELIQQHAIDRQEDLLRYLKEAGFQVTQATVSRDIRELHLVKVAAGGGQYRYVSAAAAS — higher, -0.0903
- HMVSVEELLSSLDPNEATVLKLLAERSSGVDELMERSGLDFSALSEAITNLELFGYIAREMDGVYSFS — higher, -0.559
- HMDFVKGDTVVFIDAFMPDHLMTIHKVQGEGILLDGNHKFALAHLIRHASTVELNAKRRLSLTEQS — lower, -2.05
- HMLDLSDFEVVRDLYLSEQIWNVGDLIIARSKKDDTYKAWEIIRKGTNYVTGIDESHKVEKIWLHDILI — higher, -1.4
- HMASVVEQVQVSNDISLFRQQNSPYWQARFKVAGKWYTRTTKRTEQTQAAFRAAELRSEVQTKISQGIPLR — higher, -0.866
- HMDDTRLLSEIGLSQRVLNALRARGIERVGQVLAMRPDQLLGIRNFGPRALQELRERLQENGYTEGPLFSG — higher, 0.309
- HMGHTVHAVPEAADRQRLDVFVGNLHPTISRAYIQKLSKEDQILVNGKPEKAGFKLRTGHSVSVPDMSE — higher, 0.0769
- HMTAPELGIRQDGNTLVIFWPSSVTGYVLKSADAVDTPPASWTSVTHTTVGDEHRAEITPTGNSRFFRLV — higher, -0.267
- HMTKAGVDAWTRGDYAAAVKEWQAQAAKGDADAIFNLGQAFKLGKGVPQDLIKAEQLFGQAAA — higher, 0.154
- HMDRESFIKLGRELARSAFAHVGQKSTEKALETAADVLRLKDPNEVLARLGSAELTGRQVVQAIYPELI — higher, -0.0704
- HMEEPEFEPYVVRLTAIALNVRTGPGTQYPVAMVIRGGGAFTIVAEENGFGLLKSGAGWIMLQHTERV — higher, -0.434
- HMAFIEADIGKRIKSLRNKKRITLESLAAETGFTKGYLSKVETSEKAPPVSTLGSIARALGVSISTLLGE — higher, -0.224
- HMRKKTYEIITDDLRRMIEAGLIRPGEKLGAIDQLAAKYRVGRSTVREALSHLKALGLVESRQGGGTYVTK — higher, 0.156
- HMPSHALFWTLLKEVPGYDPHYKDVIKEGIVHEHSGGRTTSLSEMYTKYPREYSLMIEAMKG — higher, -0.487
- HMSLMHEESLKNIRRFINSLPESLRTAFTLREQDGLSYEEIGVITETPIGTVRSRIFRAREAILEHIKKEL — lower, -2.24
- HMKTMAVYPVGTRVLTSDGEIGVVEKQNSEAPERPVIKILKGADGHDYEKPDFKDLMKILTLFIVDTI — higher, 0.298
- HMNLSSETLSEMEARIGQMGVVELQDRRAYLLQEQEGTQNPSRLKEIADELSAIQKALVALV — higher, 0.1
- HMNPETLTNSSVIKMSKANLSDELITDMILNSPVKFDLSAGAIKTLESEGVTPAVLESMKNAASK — higher, 0.154
- HMREEIESVYKTLAVTEIPYIARGNSARLGSGIQTVYDFYRMEGMQVSKILGRNGSVLWLELHG — higher, 0.126
- HMKIQTYEDFRNAYPDIQGSLFGSAERYKTDLDWGDVAAKYDADEELKNVRNIFQLVRRYEQKYS — higher, 0.332
- HMKVYPIMEAIANNNIELVKLLLEYHADLNIKDSNGNTPLALAKETGAKEVEDLLLQWMKQHT — higher, -0.543
- HMRRELDSEHKRQEILFAAKRLLLAEGYDATSMSRLAKEAGVAPNTLYWYFKDKDELLIAILDELVAE — within 0.2 log units, -1.72
- HMQINLKQSSDEELVKIITVQVHHYEPHTVKAAEAEIERRGIDKMRMAHLVKKVAQENTAVQEIQD — higher, 0.18
- HMADQIIEGILGKEGGYVNNPNDKGGPTRWGITQTTARAYGYSGDMKALPRDTAKAIYLSQYWT — higher, -0.183
- HMREFQVMKQELQEMVHQRLDMSTELSDEAIGDVIDEVIMEKSRNMYISSVTKLTLRQELFNAIR — higher, -0.629
- HMKVTRWEDTGMKPAEAQEWQHYDFKPQEAMNWRDAGFVPLVARTWSDKGFDASEAQAWRDSVRNS — higher, -0.19
- HMGLPAWVPQNYIDRVTAIYDYSADKDDELTFNEGSTIFVLKKNDDGWWEGVMDGVTGLFPGNYVEAT — higher, -0.8
- HMNFGEVLQTKRKSMGLTQEDLADKLFVSSETISNWETNKTTPDIDNVIRISQLFDISLNNLLL — higher, -0.0758
- HMAGTPAIVKWFNPTKGFGFVTPKEAGSDALLHASVLAKRGKRWLQEGTLVEVLIEEGPKGLVVSELLTIE — higher, -0.748
- HMEQVQQIPIEELFPFKEHPFKVLDDEAMQRTVESVAQYGVLAPLIARPRPEGGYEIISGHRRQHAAELYR — higher, -0.0852
- HMNYKDQISRYFQQAFHIYPKYQTMKNEEGNFTSKIFKDDKMIIEGVGKSKKKAEQDVSRKALIHFNVL — higher, -0.262
- HMLPVFNYQVYRTHGLIYVYAKDNDSFDQIARSMGFKAKQLMKFNEVPEDFPLQAGDIVYLEKKKK — higher, -1.42
- HMNVEATAETLLALLKKNGGSLPFGDKSDPEAIQSQLKMSKKTFKKAAGTLFKKKLVRIEDHGIFL — higher, -0.657
- HMGGASVTDQQIRDFVSAHTDDPMAIYKAAVANGISSARLAQVTGISIADIEAFVRKNNLPSF — higher, 0.0932
- HMDSDELEAFRLITSVNGVGPKLGIAILSEFTAEKLTVFIASGDAKALTAASGVGIKLAQRIVLELKDKVG — higher, -0.199
- HMKELTELIEKIKLRRLELGLSYQELSDLTGINKSTLQRYETGFIKKVPINQVQIIAKALNVTPGYLMG — higher, -0.28
- HMGLVDSLEPLLRRVYEALPQRRSMTTERLAVAAGLDEESVKVALARLQLSAFVGVDERGWHRSL — higher, -1.11
- HMDEWKRKELWDAIARLPKIQRMVVTMRTTENLPYKEIAKIMNISENSAKVNYHHAVEALKIFF — lower, -2.66
- HMSKYGIAYSEVLEILKHIPIEDYNKIPRNEIELFETYADKDFTFNYDSSKTLEEQNVSNITKGIIIL — higher, -0.103
- HMVWINIRDLSDLFSKSGKSENSKNILDLQTLKIEKLLGGGQINTPYTIKVKQATPSAIEKVKQAGGEVIL — higher, -0.0218
- HMRHYVLKENNGVIAIYKVNQENEAVFKENTQIQVQYLPEVDLINLKKGIYAIGEEKLNSILEDF — higher, -0.613
- HMKNTLDAYIRYLSNFLSRNNYPEAEDLSFINARADQAYEVFLEARRGGVDVSTAEELAMIALMQGY — higher, -1.13
- HMETYSGVERAAILVMYLERTLAKALLDHMNDEEVRRVGMAMASIDRVEGPDIERIVGDFVRELYEVS — higher, -0.793
- HMISKRFQIDEDNSNKRIDIFLTQSLDSISRGIVQQLILENKVEVNGGPVKRNYLIKIGDVIDVKIDL — higher, -0.939
- HMWVETITTKAGITKYKFQERYTDTYSGKTKRVSVTYTSNSRQAYKLAQAELQKKIDLATNTD — higher, -0.849
- HMLADTNIHTIALKHRLANEVVEQVRPFLPETATIRAYDNMLILKSDRATLANVEQLIKKLDT — higher, 0.0983
- HMKPTVKVPNVVNLSLRNAQIQLQNYGLEVGSISYESSRFKNAVLRQSISEGSVVEKGTTINLVISDGL — higher, -0.203
- HMLGRPDMSPIPEGSRNNDLHAWGFGRLANHPDNKRQIEADFFERGRISGLGDAEIRASWNSILRQLGHQ — higher, 0.14
- HMNLGLTGDPSVLYSILLQRGDSSRADLQRQTGWSLSKTTLVLNQLLAQKLIVQVGAGRSTQYRVIN — higher, -0.983
- HMVVADFQNYTVKPKENLYSLTKTSGLSQEELVALNPELKNGVQEGMVIKLPAAVKLMAQPE — higher, 0.15
- HMKNTADRVYENLFHMLVSGDYAPGDRIPSEHELKERFNVSRNTIRAALNRMNALGIIETRQGDGTYLKG — higher, -0.243
- HMAADLIGLEARVTLPLTEDQRGFIETSVRGSLVRRAALSASGRLDRGQRVVILRSEGTTLIVDAL — higher, -0.844
- HMQSKSEINELPKSIHMAFSPKNFELFIDNLKINEIDFSNWKGELNTIQERVDGQRQIWIQDPQGYWIEIN — higher, -0.018
